Measurements as given in US20090092544A1.

Columns and labels:
[1] = molecular target: ROBO1 expressed on ROBO1-expressing HEK293 cells (ROBO1/pcDNA3.1, C-terminal V5 tag) (human) (UniProt Q9Y6N7); assay: cell-based or functional assay
[2] = molecular target: ROBO1 expressed on ROBO1-expressing HEK293 cells (ROBO1/pcDNA3.1, C-terminal V5 tag) (human) (UniProt Q9Y6N7); assay: FACS on ROBO1-expressing HEK293 cells, signal intensity digitized

UniProt Q9Y6N7, sequence (Q9Y6N7 26-1651): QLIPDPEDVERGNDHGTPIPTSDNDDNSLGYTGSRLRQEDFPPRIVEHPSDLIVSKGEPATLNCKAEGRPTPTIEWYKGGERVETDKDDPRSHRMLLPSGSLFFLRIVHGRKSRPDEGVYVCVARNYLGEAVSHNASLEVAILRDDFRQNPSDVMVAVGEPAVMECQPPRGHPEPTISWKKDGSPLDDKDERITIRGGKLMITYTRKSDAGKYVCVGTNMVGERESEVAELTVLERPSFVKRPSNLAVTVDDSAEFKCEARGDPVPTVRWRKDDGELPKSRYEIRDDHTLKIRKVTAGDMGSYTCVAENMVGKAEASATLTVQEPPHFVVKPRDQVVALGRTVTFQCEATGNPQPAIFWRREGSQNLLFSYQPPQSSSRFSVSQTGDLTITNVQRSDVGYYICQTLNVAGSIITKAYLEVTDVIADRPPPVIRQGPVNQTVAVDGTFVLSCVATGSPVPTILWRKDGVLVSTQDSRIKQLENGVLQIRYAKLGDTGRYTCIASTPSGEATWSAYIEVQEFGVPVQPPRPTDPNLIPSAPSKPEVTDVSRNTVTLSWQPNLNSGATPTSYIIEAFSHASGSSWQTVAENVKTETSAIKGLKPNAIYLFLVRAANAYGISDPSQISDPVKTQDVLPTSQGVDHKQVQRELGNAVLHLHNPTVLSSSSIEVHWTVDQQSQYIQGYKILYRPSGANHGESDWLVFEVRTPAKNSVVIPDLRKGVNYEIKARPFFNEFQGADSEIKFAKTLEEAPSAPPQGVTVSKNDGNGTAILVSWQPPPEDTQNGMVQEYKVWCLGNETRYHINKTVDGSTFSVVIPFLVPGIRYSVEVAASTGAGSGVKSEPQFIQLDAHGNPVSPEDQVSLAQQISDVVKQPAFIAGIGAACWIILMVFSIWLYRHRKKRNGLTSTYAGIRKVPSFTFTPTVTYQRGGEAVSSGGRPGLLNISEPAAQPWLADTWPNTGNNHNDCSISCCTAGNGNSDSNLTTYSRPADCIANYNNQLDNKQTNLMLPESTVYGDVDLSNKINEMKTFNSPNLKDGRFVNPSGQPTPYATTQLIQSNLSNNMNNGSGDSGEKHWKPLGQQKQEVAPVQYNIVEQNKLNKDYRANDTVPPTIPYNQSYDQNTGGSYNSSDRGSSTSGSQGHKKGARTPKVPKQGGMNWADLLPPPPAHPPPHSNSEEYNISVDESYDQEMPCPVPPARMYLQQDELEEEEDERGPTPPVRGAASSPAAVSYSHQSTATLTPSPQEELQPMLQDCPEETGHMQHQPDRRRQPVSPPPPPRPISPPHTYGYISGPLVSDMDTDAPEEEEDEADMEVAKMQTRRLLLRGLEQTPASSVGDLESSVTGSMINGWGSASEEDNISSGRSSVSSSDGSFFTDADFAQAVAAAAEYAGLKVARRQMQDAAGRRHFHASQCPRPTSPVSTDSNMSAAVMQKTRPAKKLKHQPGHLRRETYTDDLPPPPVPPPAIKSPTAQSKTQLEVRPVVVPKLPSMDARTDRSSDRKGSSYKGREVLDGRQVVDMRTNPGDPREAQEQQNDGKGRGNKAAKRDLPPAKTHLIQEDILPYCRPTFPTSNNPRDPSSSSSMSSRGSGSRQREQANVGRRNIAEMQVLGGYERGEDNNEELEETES

- CDC (%), measured value at 0.1 ug/mL [1]: 87.2%
- EC50 [2]: 3.1 nM
B1: B5209B (antibody, from another filing, mouse IgG2b)
scFv: MAEVQLVESGGGVVQPGGSLKLSCAASGFTFSTYDMSWVRQTPDKRLELVATINSNGGSTYYPDSVKGRFTSSRDNAKNILYLQMSSLKSEDTAMYYCAREALLRPPYYALDYWGQGTSVTVSSAGGGGSGGGGSGGGGSGGGGSDILDIQMTQSPASLSASVGETVTITCGASENIYGALTWYQRKQGKSPQLLIYGAINLADDKSSRFSGSGSGRQYSLKISSLHPDDVATYYCQNVLSTPFTFGSGTKLEIKAAGHHHHHH
